{"source": "paper PMC11161652", "about": "“ASXLs binding to the PHD2/3 fingers of MLL4 provides a mechanism for the recruitment of BAP1 to active enhancers” (Nature Communications, 2024)", "key": {"[1]": {"test_system": "H3K4 (recombinant histone octamers or mono-nucleosomes)", "experiment": "H3K4 histone methyltransferase assay", "assay_type": "biochemical, human", "settings": "purified complexes, 50 μM S-adenosyl-L-methionine, 8 h at 30 °C, n = 2", "description": "Equivalent amounts of purified ASXL2 WT and ΔMBH complexes were incubated with 0.5 μg of reconstituted recombinant mono-nucleosomes or histone octamers as substrates. All HMT assays were performed in 50 mM Tris-HCl pH 8, 100 mM KCl, 5 mM MgCl2, 0.1 mM DTT, 10% glycerol in the presence of 50 μM S-adenosyl-L-methionine (Sigma, A7007). After an 8 h incubation at 30 °C, 4X Laemmli buffer was added, the samples run on 15% SDS-PAGE and transferred on nitrocellulose membrane. Immunoblotting was performed with an anti-H3K4me1 (Ab8895, rabbit polyclonal) diluted 1:1000 followed by HRP conjugated secondary goat anti-rabbit antibody (Sigma) used at a 1:10,000 dilution. The immunoblots were visualized using a Western Lightning plus-ECL reagent (Perkin-Elmer). Anti-H4 (Abcam, Ab7311, rabbit polyclonal) was used at a 1:2,500 dilution."}, "[2]": {"test_system": "active enhancer upstream of GRHL2 gene in K562 ASXL2 KD cells", "experiment": "ChIP-qPCR at active enhancer upstream of GRHL2", "assay_type": "cell-based, human", "settings": "K562 ASXL2 KD cells complemented from AAVS1; IP/input corrected for total H3; three biological replicates", "from_the_text": "K562 cell lines with knocked down expression of endogenous ASXL2 were obtained after double infection of lentivirus expressing Cas9 and 4 different gRNAs targeting the end of exon 1 (pLENTI_CRISPR_V2, co-selection by FACS with GFP). Clone 1 L was selected (obtained with gRNA 1: 5′-[…]-3′ cutting at the very end of exon 1) for transfection of WT and DMBH ASXL2 vectors for integration and stable expression from the AAVS1 safe harbor, as described for the tagged K562 cell lines used for purification. Expression levels of endogenous ASXL2, WT and ΔMBH ASXL2 were monitored by running SDS-PAGE and transferring onto nitrocellulose membrane. Anti-FLAG M2 conjugated to horseradish peroxidase (A8592, Sigma) was used at 1:10,000 dilution and anti-ASXL2, at 1:2,000 (Cell Signaling (E623X), CS71257, lot:1). Immunoblots were visualized using a Western Lightning plus ECL reagent (Perkin-Elmer).\nCrosslinked chromatin from K562 cells and immunoprecipitations were prepared as previously described. For chromatin immunoprecipitation, 100 μg of chromatin was incubated with 2 μg anti-H2AK119ub (Cell Signaling, 8240S, D27C4 lot:9) or 3 μg anti-H3 (Abcam, ab1791, lot GR3421644-1), 2 μg anti-H3Kme1 (Abcam, ab8895, lot GR442591-1), 2 μg anti-H3K27ac (Thermo Fisher, MA5-23516, lot: ZA4181671) or 0.3 μg anti-H3K27me3 (Cell Signaling, C36B11, 9733 S lot:19) antibodies overnight at 4 °C. 25 μl of Protein A Dynabeads were then added to each sample, and the mixtures were incubated at 4 °C for 4 h. The beads were washed extensively and eluted with 1% SDS and 0.1 M NaHCO3. Cross-linked samples were reversed by heating overnight at 65 °C in the presence of 0.2 M NaCl. Samples were then treated with RNase A and proteinase K for 2 h, and DNA was recovered using MinElute PCR purification Kit (Qiagen, 28004) according to the manufacturer’s instructions. Quantitative real-time PCR corrected for primer efficiencies in the linear range was performed using SYBR Green I (Roche, 04877352001) on a LightCycler 480 (Roche). Primers for 5′ end of active enhancer: Fwd: 5′-[…]; Rev: 5′-[…]; For 3′ end: Fwd: 5′-[…], Rev: 5′-[…]."}, "PR-DUB complex": {"test_system": "PR-DUB complex", "experiment": "Tandem affinity purification: association with PR-DUB complex", "assay_type": "cell-based, human", "settings": "K562 soluble nuclear extracts, 3Flag-2Strep tag, western blot and mass spectrometry", "description": "(§1) Isogenic K562 cell lines expressing 3xFlag2xStrep-tagged ASXL2 WT and ΔMBH (aa 650-670), were generated by integration at the AAVS1 safe harbor locus after DSB induction and recombination targeted by co-transfection with a ZFN expression plasmid, as previously described. 2 × 10^5 cells were transfected with 400 ng of ZFN expression vector and 4 μg of donor constructs. Selection and cloning were performed in RPMI medium supplemented with 0.5 μg/mL puromycin starting 2–3 days post transfection. Clones were obtained by limiting dilution and expanded before harvest for western blot analysis.\n(§2) For purification of native complexes, after large-scale expansion of K562 clones, affinity purifications of tagged ASXL2 WT and ΔMBH (aa 650-670) were performed on nuclear extracts as previously described. Briefly, nuclear extracts were prepared following standard procedures and pre-cleared with CL6B Sepharose beads. […] Typically, 5–15 μl of the elutions (1–3% of total) was loaded on NuPAGE 4–12% Bis-Tris gels (Invitrogen) and analyzed by silver staining and western blots. […] Purified fractions were prepared and analyzed at the Proteomics Platform of the Quebec Genomic Center using an Orbitrap Fusion mass spectrometer (Thermo Fisher Scientific) as previously described. […]"}, "GST-MLL4PHD2/3": {"test_system": "GST-MLL4PHD2/3", "experiment": "GST pull-down, WT MLL4PHD2/3", "assay_type": "binding, human", "settings": "WT GST-MLL4PHD2/3; HEK293FT lysate, 3 h at 4 °C, western blot; n = 3", "description": "(§3) Pull-down assays were performed by mixing resin-bound GST-MLL3PHD2/3 and GST-MLL4PHD2/3 (wild type and mutants) with lysates of HEK293FT expressing Myc-ASXL1, Myc-ASXL2 or Myc-ASXL2ΔMBH. Pellets of HEK293FT cells transfected with the appropriate pDEST expression construct (15 μg/dish using polyethylenimine (PEI)) were lysed with 10 times their volume of lysis buffer (50 mM Tris pH 7.3, 100 mM NaCl, 1 mM DTT, 1 mM EDTA, 1 mM PMSF, 0.1% Tween20, 1/100 anti-protease (Sigma)) and sonicated with a probe sonicator (Branson digital sonifier 450) calibrated at 40% amplitude for 3–4 rounds during 40–60 s. Lysates were then centrifuged in a Sorvall Lynx 6000 (rotor: F21-8x50Y) at 15,000 RPM during 20 min. Approximatively 9 μg of purified GST-fusion proteins bound to GSH resin (Sigma, G4510) were used for each condition. Final volume of GSH resin was adjusted to 30 μl per condition with empty GSH beads and incubated with 1.5 mL of HEK293FT lysate expressing Myc-ASXL1, Myc-ASXL2 or Myc-ASXL2ΔMBH for 3 h at 4 °C on a rotative system. A fraction of the reaction mixture (80 μL) was collected as the input. After the incubation, beads were washed 5 times and mixed with 100 μL of Laemmli buffer. Samples were loaded on 8% or 15% SDS-acrylamide gels and processed for western blotting."}, "MLL3/4 complexes": {"test_system": "MLL3/4 complexes", "experiment": "Tandem affinity purification: interaction with MLL3/4 complexes", "assay_type": "cell-based, human", "settings": "K562 soluble nuclear extracts, 3Flag-2Strep tag, western blot and mass spectrometry", "description": "as §1, §2"}, "GST-MLL3PHD2/3": {"test_system": "GST-MLL3PHD2/3", "experiment": "GST pull-down, WT MLL3PHD2/3", "assay_type": "binding, human", "settings": "WT GST-MLL3PHD2/3; HEK293FT lysate, 3 h at 4 °C, western blot; n = 3", "description": "as §3"}, "H2AK119": {"test_system": "H2AK119", "experiment": "H2AK119 deubiquitination assay", "assay_type": "biochemical, human"}}}
{"molecule": "ASXL2ΔMBH: ΔMBH ASXL2 mutant lacking the MLL3/4-binding domain (aa 650-670) (protein, left off: 3xFlag, end not stated, kept | 2xStrep, end not stated, kept) MREKGRRKKGRTWAEAAKTVLEKYPNTPMSHKEILQVIQREGLKEIRSGTSPLACLNAMLHTNSRGEEGIFYKVPGRMGVYTLKKDVPDGVKELSEGSEESSDGQSDSQSSENSSSSSDGGSNKEGKKSRWKRKVSSSSPQSGCPSPTIPAGKVISPSQKHSKKALKQALKQQQQKKQQQQCRPSISISSNQHLSLKTVKAASDSVPAKPATWEGKQSDGQTGSPQNSNSSFSSSVKVENTLLGLGKKSFQRSERLHTRQMKRTKCADIDVETPDSILVNTNLRALINKHTFSVLPGDCQQRLLLLLPEVDRQVGPDGLMKLNGSALNNEFFTSAAQGWKERLSEGEFTPEMQVRIRQEIEKEKKVEPWKEQFFESYYGQSSGLSLEDSKKLTASPSDPKVKKTPAEQPKSMPVSEASLIRIVPVVSQSECKEEALQMSSPGRKEECESQGEVQPNFSTSSEPLLSSALNTHELSSILPIKCPKDEDLLEQKPVTSAEQESEKNHLTTASNYNKSESQESLVTSPSKPKSPGVEKPIVKPTAGAGPQETNMKEPLATLVDQSPESLKRKSSLTQEEAPVSWEKRPRVTENRQHQQPFQVSPQPFLNRGDRIQVRKVPPLKIPVSRISPMPFHPSQVSPRARFPVSITSPRAAAAAAAAAAAAASVGGTIPGPGPGGGQGPGEGGEGQTARGGSPGSDRVSETGKGPTLELAGTGSRGGTRELLPCGPETQPQSETKTTPSQAQPHSVSGAQLQQTPPVPPTPAVSGACTSVPSPAHIEKLDNEKLNPTRATATVASVSHPQGPSSCRQEKAPSPTGPALISGASPVHCAADGTVELKAGPSKNIPNPSASSKTDASVPVAVTPSPLTSLLTTATLEKLPVPQVSATTAPAGSAPPSSTLPAASSLKTPGTSLNMNGPTLRPTSSIPANNPLVTQLLQGKDVPMEQILPKPLTKVEMKTVPLTAKEERGMGALIATNTTENSTREEVNERQSHPATQQQLGKTLQSKQLPQVPRPLQLFSAKELRDSSIDTHQYHEGLSKATQDQILQTLIQRVRRQNLLSVVPPSQFNFAHSGFQLEDISTSQRFMLGFAGRRTSKPAMAGHYLLNISTYGRGSESFRRTHSVNPEDRFCLSSPTEALKMGYTDCKNATGESSSSKEDDTDEESTGDEQESVTVKEEPQVSQSAGKGDTSSGPHSRETLSTSDCLASKNVKAEIPLNEQTTLSKENYLFTRGQTFDEKTLARDLIQAAQKQMAHAVRGKAIRSSPELFSSTVLPLPADSPTHQPLLLPPLQTPKLYGSPTQIGPSYRGMINVSTSSDMDHNSAVPGSQVSSNVGDVMSFSVTVTTIPASQAMNPSSHGQTIPVQAFSEENSIEGTPSKCYCRLKAMIMCKGCGAFCHDDCIGPSKLCVSCLVVR", "values": [{"measurement": "mono-methylation of H3K4", "setting": "[1]", "result": "markedly decreased"}, {"measurement": "H2AK119ub level", "setting": "[2]", "result": "not the ΔMBH ASXL2 mutant led to a decrease in H2AK119ub level"}, {"measurement": "H3K4me1 level", "setting": "[2]", "result": "not affected"}, {"measurement": "association with PR-DUB complex", "setting": "PR-DUB complex", "result": "stably associates with the expected components of the PR-DUB complex"}, {"measurement": "association in pull-down", "setting": "GST-MLL4PHD2/3", "result": "essentially abolished"}, {"measurement": "interaction with MLL3/4 complexes", "setting": "MLL3/4 complexes", "result": "abrogated the interaction between ASXL2 and MLL3/4 in vivo"}, {"measurement": "association in pull-down", "setting": "GST-MLL3PHD2/3", "result": "essentially abolished"}, {"measurement": "deubiquitinase activity toward H2AK119Ub in vitro", "setting": "H2AK119; BAP1/ASXL2 complexes from co-transfected HEK293FT cells, purified native nucleosomes, room temperature, n=2", "result": "does not affect"}, {"measurement": "de-ubiquitination of H2AK119", "setting": "H2AK119; purified complexes on human chromatin, 37 °C, 3 or 6 h, immunoblot", "result": "efficient and equivalent de-ubiquitination of H2AK119"}]}
